Measurements from patent US20200157190A1.
One block for each binder: values may come before it.

What was measured:
Antigen 1 [1] = assay: ELISA, supernatant 1 TO 4, Plate 1 (Antigen 1), column 10, BLANK 0.07
Antigen 2 [2] = assay: ELISA, supernatant 1 TO 1024, Plate 2 (Antigen 2), column 10, BLANK 0.07
Antigen 2 [3] = assay: ELISA, supernatant 1 TO 256, Plate 2 (Antigen 2), column 10, BLANK 0.07
Antigen 1 [4] = assay: ELISA, supernatant 1 TO 256, Plate 1 (Antigen 1), column 10, BLANK 0.07
Antigen 1 [5] = assay: ELISA, supernatant 1 TO 16, Plate 1 (Antigen 1), column 10, BLANK 0.07
Antigen 2 [6] = assay: ELISA, supernatant UNDILUTED, Plate 2 (Antigen 2), column 10, BLANK 0.07
Antigen 2 [7] = assay: ELISA, supernatant 1 TO 4, Plate 2 (Antigen 2), column 10, BLANK 0.07
Antigen 2 [8] = assay: ELISA, supernatant 1 TO 4096, Plate 2 (Antigen 2), column 10, BLANK 0.07
Antigen 2 [9] = assay: ELISA, supernatant 1 TO 16, Plate 2 (Antigen 2), column 10, BLANK 0.07
Antigen 1 [10] = assay: ELISA, supernatant 1 TO 1024, Plate 1 (Antigen 1), column 10, BLANK 0.07
Antigen 1 [11] = assay: ELISA, supernatant UNDILUTED, Plate 1 (Antigen 1), column 10, BLANK 0.07
Antigen 1 [12] = assay: ELISA, supernatant 1 TO 64, Plate 1 (Antigen 1), column 10, BLANK 0.07
Antigen 2 [13] = assay: ELISA, supernatant 1 TO 64, Plate 2 (Antigen 2), column 10, BLANK 0.07
Antigen 1 [14] = assay: ELISA, supernatant 1 TO 4096, Plate 1 (Antigen 1), column 10, BLANK 0.07
Antigen 1 [15] = assay: ELISA, supernatant 1 TO 16, Plate 1 (Antigen 1), column 6, BLANK 0.07
Antigen 2 [16] = assay: ELISA, supernatant 1 TO 64, Plate 2 (Antigen 2), column 6, BLANK 0.06
Antigen 1 [17] = assay: ELISA, supernatant 1 TO 4, Plate 1 (Antigen 1), column 6, BLANK 0.07
Antigen 2 [18] = assay: ELISA, supernatant UNDILUTED, Plate 2 (Antigen 2), column 6, BLANK 0.06
Antigen 1 [19] = assay: ELISA, supernatant UNDILUTED, Plate 1 (Antigen 1), column 6, BLANK 0.07
Antigen 2 [20] = assay: ELISA, supernatant 1 TO 256, Plate 2 (Antigen 2), column 6, BLANK 0.06
Antigen 1 [21] = assay: ELISA, supernatant 1 TO 1024, Plate 1 (Antigen 1), column 6, BLANK 0.07
Antigen 1 [22] = assay: ELISA, supernatant 1 TO 4096, Plate 1 (Antigen 1), column 6, BLANK 0.07
Antigen 2 [23] = assay: ELISA, supernatant 1 TO 1024, Plate 2 (Antigen 2), column 6, BLANK 0.06
Antigen 2 [24] = assay: ELISA, supernatant 1 TO 4096, Plate 2 (Antigen 2), column 6, BLANK 0.06
Antigen 2 [25] = assay: ELISA, supernatant 1 TO 16, Plate 2 (Antigen 2), column 6, BLANK 0.06
Antigen 2 [26] = assay: ELISA, supernatant 1 TO 4, Plate 2 (Antigen 2), column 6, BLANK 0.06
Antigen 1 [27] = assay: ELISA, supernatant 1 TO 64, Plate 1 (Antigen 1), column 6, BLANK 0.07
Antigen 1 [28] = assay: ELISA, supernatant 1 TO 256, Plate 1 (Antigen 1), column 6, BLANK 0.07
Antigen 1 [29] = assay: ELISA, supernatant 1 TO 256, Plate 1 (Antigen 1), column 8, BLANK 0.07
Antigen 1 [30] = assay: ELISA, supernatant 1 TO 64, Plate 1 (Antigen 1), column 8, BLANK 0.07
Antigen 2 [31] = assay: ELISA, supernatant 1 TO 64, Plate 2 (Antigen 2), column 8, BLANK 0.07
Antigen 1 [32] = assay: ELISA, supernatant 1 TO 16, Plate 1 (Antigen 1), column 8, BLANK 0.07
Antigen 2 [33] = assay: ELISA, supernatant UNDILUTED, Plate 2 (Antigen 2), column 8, BLANK 0.07
Antigen 1 [34] = assay: ELISA, supernatant 1 TO 4096, Plate 1 (Antigen 1), column 8, BLANK 0.07
Antigen 2 [35] = assay: ELISA, supernatant 1 TO 4, Plate 2 (Antigen 2), column 8, BLANK 0.07
Antigen 2 [36] = assay: ELISA, supernatant 1 TO 4096, Plate 2 (Antigen 2), column 8, BLANK 0.07
Antigen 2 [37] = assay: ELISA, supernatant 1 TO 1024, Plate 2 (Antigen 2), column 8, BLANK 0.07
Antigen 2 [38] = assay: ELISA, supernatant 1 TO 256, Plate 2 (Antigen 2), column 8, BLANK 0.07
Antigen 1 [39] = assay: ELISA, supernatant UNDILUTED, Plate 1 (Antigen 1), column 8, BLANK 0.07
Antigen 1 [40] = assay: ELISA, supernatant 1 TO 1024, Plate 1 (Antigen 1), column 8, BLANK 0.07
Antigen 2 [41] = assay: ELISA, supernatant 1 TO 16, Plate 2 (Antigen 2), column 8, BLANK 0.07
Antigen 1 [42] = assay: ELISA, supernatant 1 TO 4, Plate 1 (Antigen 1), column 8, BLANK 0.07

ELISA plate reading (Antigen 1 [1]): 0.12
ELISA plate reading (Antigen 2 [2]): 0.94
ELISA plate reading (Antigen 2 [3]): 1.68
ELISA plate reading (Antigen 1 [4]): 0.08
ELISA plate reading (Antigen 1 [5]): 0.08
ELISA plate reading (Antigen 2 [6]): 2.27
ELISA plate reading (Antigen 2 [7]): 2.38
ELISA plate reading (Antigen 2 [8]): 0.39
ELISA plate reading (Antigen 2 [9]): 2.24
ELISA plate reading (Antigen 1 [10]): 0.1
ELISA plate reading (Antigen 1 [11]): 0.09
ELISA plate reading (Antigen 1 [12]): 0.08
ELISA plate reading (Antigen 2 [13]): 2.19
ELISA plate reading (Antigen 1 [14]): 0.08
B1: Original Heavy Chain (VH2) and Light Chain (VL2) that recognizes Antigen 2 (antibody, V domains shown)
VH: QSLEESGGRLVSPGTPLTLTCTASGFSLSSNAMGWVRQAPGEGLEYIGIIRPGGSTYYASWAKGRFTISKTSSTTVDLKMTSLTTEDTATYFCARAWDIWGPG
VL: AFELTQTPSSVEAAVGGTVTIRCQASQSISNQLSWYQQKPGQPPKRLIYRASTLASGVPARFKGSGSGTAFTLTISDLECADGATYYCQSFYYTDVIDYNAFGGGTEVVVTG

ELISA plate reading (Antigen 1 [15]): 0.07
ELISA plate reading (Antigen 2 [16]): 0.26
ELISA plate reading (Antigen 1 [17]): 0.11
ELISA plate reading (Antigen 2 [18]): 2.04
ELISA plate reading (Antigen 1 [19]): 0.22
ELISA plate reading (Antigen 2 [20]): 0.11
ELISA plate reading (Antigen 1 [21]): 0.06
ELISA plate reading (Antigen 1 [22]): 0.06
ELISA plate reading (Antigen 2 [23]): 0.08
ELISA plate reading (Antigen 2 [24]): 0.06
ELISA plate reading (Antigen 2 [25]): 0.67
ELISA plate reading (Antigen 2 [26]): 1.4
ELISA plate reading (Antigen 1 [27]): 0.09
ELISA plate reading (Antigen 1 [28]): 0.06
B2: Heavy Chain Construct 3 with Light Chain Construct 2 (VH1-VH2/VL2) (antibody)
heavy: QSVEESGGRLVTPGTPLTLTCTVSGFSLNTNAIRWVRQAPGKGLEWIGAIDASGNTYYASWAKGRFTISKTSTTVDLKITSPTTEDTATYFCNRFNTANIWGPGTLVTVSSGQPKAPSVFPLAPCCGDTPSSTVTLGCLVKGYLPEPVTVTWNSGTLTNGVRTFPSVRQSSGLYSLSSVVSVTSSSQPVTCNVAHPATNTKVDKTVAPSTCSKPMCPPPELLGGRPQPQPQPQPQPQPQPQPQPQPQPQPQPQPQPQSRQSLEESGGRLVSPGTPLTLTCTASGFSLSSNAMGWVRQAPGEGLEYIGIIRPGGSTYYASWAKGRFTISKTSSTTVDLKMTSLTTEDTATYFCARAWDIWGPGTLVTVSLGQPKAPSVFPLAPCCGDTPSSTVTLGCLVKGYLPEPVTVTWNSGTLTNGVRTFPSVRQSSGLYSLSSVVSVTSSSQPVTCNVAHPATNTKVDKTVAPSTCSKPTCPPPELLGGPSVFIFPPKPKDTLMISRTPEVTCVVVDVSQDDPEVQFTWYINNEQVRTARPPLREQQFNSTIRVVSTLPIAHQDWLRGKEFKCKVHNKALPAPIEKTISKARGQPLEPKVYTMGPPREELSSRSVSLACMINGFYPSDISVEWEKNGKAEDNYKTTPAVLDSDGSYFLYSKLSVPTSEWQRGDVFTCSVMHEALHNHYTQKSISRSPGK
light: AFELTQTPSSVEAAVGGTVTIRCQASQSISNQLSWYQQKPGQPPKRLIYRASTLASGVPARFKGSGSGTAFTLTISDLECADGATYYCQSFYYTDVIDYNAFGGGTEVVVTGDPVAPTVLIFPPAADQVATGTVTIVCVANKYFPDVTVTWEVDGTTQTTGIENSKTPQNSADCTYNLSSTLTLTSTQYNSHKEYTCKVTQGTTSVVQSFNRGDC

ELISA plate reading (Antigen 1 [29]): 0.06
ELISA plate reading (Antigen 1 [30]): 0.01
ELISA plate reading (Antigen 2 [31]): 2.1
ELISA plate reading (Antigen 1 [32]): 0.16
ELISA plate reading (Antigen 2 [33]): 2.28
ELISA plate reading (Antigen 1 [34]): 0.07
ELISA plate reading (Antigen 2 [35]): 2.12
ELISA plate reading (Antigen 2 [36]): 0.33
ELISA plate reading (Antigen 2 [37]): 0.68
ELISA plate reading (Antigen 2 [38]): 1.47
ELISA plate reading (Antigen 1 [39]): 0.15
ELISA plate reading (Antigen 1 [40]): 0.08
ELISA plate reading (Antigen 2 [41]): 2.14
ELISA plate reading (Antigen 1 [42]): 0.12
B3: VH2-VH2 / VL2 (antibody)
heavy chain (VH2-CH1, PQ linker, VH2-CH1, hinge, CH2, CH3): QSLEESGGRLVSPGTPLTLTCTASGFSLSSNAMGWVRQAPGEGLEYIGIIRPGGSTYYASWAKGRFTISKTSSTTVDLKMTSLTTEDTATYFCARAWDIWGPGTLVTVSLGQPKAPSVFPLAPCCGDTPSSTVTLGCLVKGYLPEPVTVTWNSGTLTNGVRTFPSVRQSSGLYSLSSVVSVTSSSQPVTCNVAHPATNTKVDKTVAPSTCSKPTCPPPELLGGRPQPQPQPQPQPQPQPQPQPQPQPQPQPQPQPQSRQSLEESGGRLVSPGTPLTLTCTASGFSLSSNAMGWVRQAPGEGLEYIGIIRPGGSTYYASWAKGRFTISKTSSTTVDLKMTSLTTEDTATYFCARAWDIWGPGTLVTVSLGQPKAPSVFPLAPCCGDTPSSTVTLGCLVKGYLPEPVTVTWNSGTLTNGVRTFPSVRQSSGLYSLSSVVSVTSSSQPVTCNVAHPATNTKVDKTVAPSTCSKPTCPPPELLGGPSVFIFPPKPKDTLMISRTPEVTCVVVDVSQDDPEVQFTWYINNEQVRTARPPLREQQFNSTIRVVSTLPIAHQDWLRGKEFKCKVHNKALPAPIEKTISKARGQPLEPKVYTMGPPREELSSRSVSLACMINGFYPSDISVEWEKNGKAEDNYKTTPAVLDSDGSYFLYSKLSVPTSEWQRGDVFTCSVMHEALHNHYTQKSISRSPGK
light chain: B2 light
